Experimental findings from patent US20180185450A1 (Sanofi, published 2018) are described below.

Sequences and labels used below:
B1: SEQ ID NO: 40 (peptide)
peptide: HXQGTFTSDLSKQKESQAAQDFIEWLKAGGPSSGAPPPS
modifications: dSer at 2; K(γE-x70) at 14; C-terminal NH2
B2: SEQ ID NO: 32 (peptide)
peptide: B1 peptide with Q17K
modifications: dSer at 2; K(x53) at 14; C-terminal NH2
B3: SEQ ID NO: 26 (peptide)
peptide: B1 peptide with Q17K
modifications: dSer at 2; K(γE-x70) at 14; C-terminal NH2
B4: SEQ ID NO: 212 (peptide)
peptide: HXQGTFTSDLSKQKDKRAAQLFIEWLKAXGPSSGAPPPS
modifications: Aib at 2; K(γE-x76) at 14; dAla at 29; C-terminal NH2
B5: SEQ ID NO: 209 (peptide)
peptide: B4 peptide with A18R, L21D
modifications: Aib at 2; K(γE-x70) at 14; dAla at 29; C-terminal NH2
B6: SEQ ID NO: 20 (peptide)
peptide: B1 peptide with Q17E
modifications: dSer at 2; K(γE-x53) at 14; C-terminal NH2
B7: SEQ ID NO: 28 (peptide)
peptide: B1 peptide with Q17K, D21E
modifications: dSer at 2; K(γE-x53) at 14; C-terminal NH2
B8: SEQ ID NO: 27 (peptide)
peptide: B1 peptide with Q17K, D21L
modifications: dSer at 2; K(γE-x70) at 14; C-terminal NH2
B9: SEQ ID NO: 36 (peptide)
peptide: H[Aib]QGTFTSDLSKQK([γGlu-x53])ESQAAQDFIEWLKAGGPSSGAPPPS-NH2
modifications: reading uncertain
B10: SEQ ID NO: 213 (peptide)
peptide: H[Aib]QGTFTSDLSKQK([γGlu-x70])DEEAAKLFIEWLKAGGPSSGAPPPS-NH2
modifications: reading uncertain
B11: SEQ ID NO: 33 (peptide)
peptide: H[Aib]QGTFTSDLSKQK(x53)ESKAAQDFIEWLKAGGPSSGAPPPS-NH2
modifications: reading uncertain
B12: SEQ ID NO: 217 (peptide)
peptide: H[Aib]HGTFTSDLSKQK([γGlu-X70])EEEAARLFIEWLKAGGPSSGAPPPS-NH2
modifications: reading uncertain
B13: SEQ ID NO: 25 (peptide)
peptide: H[Aib]QGTFTSDLSKQK([γGlu-x53])ESKAAQDFIEWLKAGGPSSGAPPPS-NH2
modifications: reading uncertain
B14: SEQ ID NO: 207 (peptide)
peptide: H[Aib]QGTFTSDLSKQK([γGlu-γGlu-x53])DEQRAKEFIEWLKSGGPSSGAPPPS-NH2
modifications: reading uncertain
B15: SEQ ID NO: 206 (peptide)
peptide: H[Aib]QGTFTSDLSKQK([γGlu-x70])DEQKAKLFIEWLKSGGPSSGAPPPS-NH2
modifications: reading uncertain
B16: SEQ ID NO: 226 (peptide)
peptide: H[Aib]QGTFTSDLSKQK([γGlu-γGlu-x53])DEEAARLFIEWLKAGGPSSGAPPPS-NH2
modifications: reading uncertain
B17: SEQ ID NO: 38 (peptide)
peptide: H[Aib]QGTFTSDLSKQK([γGlu-x53])ESQAAQEFIEWLKAGGPSSGAPPPS-NH2
modifications: reading uncertain
B18: SEQ ID NO: 5 (peptide)
peptide: H[Aib]QGTFTSDLSKQK(x53)ESRRAQDFIEWLKAGGPSSGAPPPS-NH2
modifications: reading uncertain
B19: SEQ ID NO: 214 (peptide)
peptide: H[Aib]QGTFTSDLSKQK([γGlu-X70])DEEAARLFIEWLKAGGPSSGAPPPS-NH2
modifications: reading uncertain
B20: SEQ ID NO: 227 (peptide)
peptide: H[Aib]HGTFTSDLSKQK([γGlu-γGlu-x53])DEEAARLFIEWLKAGGPSSGAPPPS-NH2
modifications: reading uncertain

Substitutions are numbered along the chain they refer to. Numbered stars: 1 amine (or outer) side, 2 acyl side, 3 side chain; on linkers, the order of the positions; unused ones are H or OH. Square brackets hold non-standard residues; d marks the D form. Side chains are listed from the residue outwards. Ends that are not written are not given here. γGlu = O=C(O)[C@H](CCC(=O)[*:2])N[*:1]; X70 = not defined here; x53 = not defined here; x70 = not defined here; Aib = CC(C)(N)C(=O)O

One assay has as its target human GLP-1 receptor (human, UniProt P43220 24-463). As to the kind of experiment: cell-based or functional assay.
On to B1, for which the “EC50 hGLP-1R (cAMP)” value came to 2.6 pM.
On the same count and under the same terms, next, B2: 10.2 pM.
Still for that read-out and setting: the result for B3 reads 5.1 pM; that for B4, 14.1 pM.
The same measure, in the same setting: next, B5: 5.4 pM; B6: 3.8 pM; B7: 5.5 pM.
As to B8, the “EC50 hGLP-1R (cAMP)” value came out at 7.7 pM.
The same measure, in the same setting: next, B9: 2.7 pM; B10: 2.7 pM; B11: 11.2 pM.
Turning to B12, the “EC50 hGLP-1R (cAMP)” value was 4.3 pM.
Still for that read-out and setting: the result for B13 reads 4.2 pM; that for B14, 1.1 pM; that for B15, 3.2 pM.
On the same count and under the same terms, the result for B16 reads 1.4 pM.
Turning to B17, the “EC50 hGLP-1R (cAMP)” value worked out at 2.9 pM.
On the same count and under the same terms, the result for B18 reads 11 pM; that for B19, 4.2 pM; that for B20, 1.4 pM.

In the next assay the target is human glucagon receptor (human, UniProt P47871 26-477). Description: cell-based or functional assay.
Sequence of human glucagon receptor (P47871 26-477): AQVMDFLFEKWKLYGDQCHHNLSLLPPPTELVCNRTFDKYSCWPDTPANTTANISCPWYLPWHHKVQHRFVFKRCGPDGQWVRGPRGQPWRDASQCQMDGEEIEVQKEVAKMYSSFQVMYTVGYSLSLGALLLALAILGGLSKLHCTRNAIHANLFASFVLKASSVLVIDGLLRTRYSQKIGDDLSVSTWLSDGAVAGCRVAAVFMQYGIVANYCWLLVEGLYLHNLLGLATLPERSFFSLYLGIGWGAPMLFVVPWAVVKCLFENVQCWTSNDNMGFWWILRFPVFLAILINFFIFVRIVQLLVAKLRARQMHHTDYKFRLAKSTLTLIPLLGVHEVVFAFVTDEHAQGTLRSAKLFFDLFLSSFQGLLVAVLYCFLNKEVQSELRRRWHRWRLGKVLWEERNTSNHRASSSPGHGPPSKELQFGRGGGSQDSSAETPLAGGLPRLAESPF
As to B1, the “EC50 hGlucagon-R (cAMP)” value was 4.8 pM.
Still for that read-out and setting: next, B2: 188 pM.
Same read-out and setting: the result for B3 reads 5.4 pM; that for B4, 6.6 pM; that for B5, 1.9 pM.
Same read-out and setting: the result for B6 reads 104 pM; that for B7, 12.6 pM; that for B8, 25.1 pM.
Regarding B9, the “EC50 hGlucagon-R (cAMP)” value was determined as 45.9 pM.
On the same count and under the same terms, the result for B10 reads 59.1 pM.
On the same count and under the same terms, next, B11: 473 pM; B12: 2.1 pM.
On the same count and under the same terms, next, B13: 40.6 pM; B14: 1.2 pM; B15: 12.5 pM.
In the case of B16, the “EC50 hGlucagon-R (cAMP)” value is 19.1 pM.
The same measure, in the same setting: next, B17: 53.1 pM; B18: 109 pM; B19: 16 pM.
For the molecule B20, the “EC50 hGlucagon-R (cAMP)” value was 1.1 pM.
